For nine molecules, fluorescence intensity, binding result and FACS signal results are on record in patent US20190359687A1 (Bayer, published 2019).

The target in assay [1] is T1, Rhesus monkey glycophorin A on Rhesus monkey red blood cells (Rhesus monkey, UniProt A0A1D5Q349 20-150).
T1 construct: whole, on cells; also called Rhesus RBC; monkey GPA
T1 sequence: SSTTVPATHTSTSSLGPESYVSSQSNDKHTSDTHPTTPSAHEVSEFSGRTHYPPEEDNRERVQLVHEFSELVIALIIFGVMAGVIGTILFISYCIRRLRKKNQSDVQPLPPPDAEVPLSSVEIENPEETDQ
In words: FACS, RBC Rh02.

Assay [2] addresses T2, Cynomolgus monkey glycophorin A on Cynomolgus monkey red blood cells (Cynomolgus monkey).
T2 construct: whole, on cells; also called Cyno RBC; Cyno GPA
In words: FACS, RBC Cy01.
Description: (§1) The binding of the humanized variants to intact red blood cells (RBC) from humans (Hu01 to 03; 3 individuals), Rhesus monkey (Rh01 to 03; 3 individuals) and Cynomolgus monkey (Cy01 to 02; 2 individuals) was measured by fluorescence activated cell sorting (FACS).

Assay [3] deals with T3, human glycophorin A in the red blood cell membrane (human, UniProt P02724 20-150).
T3 construct: whole, on cells; used for intact RBC, isolated RBC membranes and transfected cells; the assay field tells which; also called GPA; hGPA
T3 sequence (looked up): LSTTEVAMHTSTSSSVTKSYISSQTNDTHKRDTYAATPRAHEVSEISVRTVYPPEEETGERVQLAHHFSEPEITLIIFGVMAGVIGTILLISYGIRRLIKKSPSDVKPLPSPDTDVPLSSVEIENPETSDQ
Description: FACS, RBC Hu01.
Description: as §1

In assay [4] the target is T1, Rhesus monkey glycophorin A on Rhesus …. Description: FACS, RBC Rh03.
Description: as §1
Assay [5] deals with T2, Cynomolgus monkey glycophorin A on …. Description: FACS, RBC Cy02.
Description: as §1
Assay [6] addresses T3, human glycophorin A in the red blood …. Description: FACS, IgG.
Description: as §1
Assay [7] shares this target. Description: FACS, RBC Hu03.
Description: as §1
The target is the same in assay [8]. In words: FACS, RBC Hu02.
Description: as §1
In assay [9] the target is T1, Rhesus monkey glycophorin A on Rhesus …. In words: FACS, RBC Rh01.
Description: as §1
The target is the same in assay [10]. Description: FACS, Rhesus RBC.
Assay [11] deals with T2, Cynomolgus monkey glycophorin A on …. In words: FACS, Cyno #1 RBC.
A further assay has as its target T4, dog red blood cells (dog).
T4 construct: also called dog RBC
Description: FACS, Dog RBC.

Assay [12] has as its target T3, human glycophorin A in the red blood …. In words: FACS, Human RBC.
Assay [13] addresses T2, Cynomolgus monkey glycophorin A on …. Description: FACS, Cyno #2 RBC.
Assay [14] shares this target. Description: FACS, Cyno #3 RBC.

B1: Hu6C12-1 (antibody, V domains shown)
VH: EVQLVQSGAEVKKPGASVKVSCKASGYTFTTYTIHWVRQAPGQGLEWMGYINPSSDYTRYNPKFKDRVTMTTDTSTSTAYMELRSLRSDDTAVYYCQRGTRDYWGQGTTVTVSS
VL: DIQLTQSPSFLSASVGDRVTITCSAASSVSYIYWYQQKPGKAPKLLIYSTSTLPSGVPSRFSGSGSGTEFTLTISSLQPEDFATYYCHQRNSFPFTFGQGTKLEIK
notes: IgG format; VH.1a + Vk.1
Take B1: the fluorescence intensity in assay [1] was determined as 1120; in assay [2], 742; in [3], 3; in assay [4] it was 1140; in assay [5], 801; in assay [7], 2. Also, the fluorescence intensity in [8] is 3; in [9] it was 1190. Besides, the binding result in assay [6] is “no binding”.

B2: Hu6C12-18 (antibody, V domains shown)
VH: EVQLVQSGAEVKKPGASVKVSCKASGYTFTTYTIHWVRQAPGQGLEWMGYINPSSDYTRYNPKFKDRVTMTTDTSTSTAYMELRSLRSDDTAVYYCQRGTRDYWGQGTTVTVSS
VL: DIQLTQSPSFLSASVGDRVTITCSAASSVSYIYWFQQKPGKAPKLLIYSTSTLPSGVPSRFSGSGSGTEYTLTISSLQPEDFATYYCHQRNSFPFTFGQGTKLEIK
notes: IgG format; VH.1a + Vk.1b
As to B2, the fluorescence intensity turned out to be 741 in assay [2]; 3 in [3]; 876 in assay [5]; 2 in [7]; 3 in [8]. For the same molecule, in assay [6], the binding result was “no binding”.

B3: Hu6C12-17 (antibody, V domains shown)
VH: EVQLVQSGAEVKKPGASVKVSCKASGYTFTTYTIHWVRQAPGQGLEWMGYINPSSDYTRYNPKFKDRVTMTTDTSTSTAYMELRSLRSDDTAVYYCARGTRDYWGQGTTVTVSS
VL: DIQLTQSPSFLSASVGDRVTITCSAASSVSYIYWFQQKPGKAPKLLIYSTSTLPSGVPSRFSGSGSGTEYTLTISSLQPEDFATYYCHQRNSFPFTFGQGTKLEIK
notes: IgG format; VH.1 + Vk.1b
In the case of B3, the fluorescence intensity in assay [2] was 104; in assay [3], 3; in [5] it was 127; in [7], 2; in assay [8] it was 3. Further, the binding result in assay [6] is reported as “no binding”.

B4: Hu6C12-9 (antibody, V domains shown)
VH: EVQLVQSGAEVKKPGASVKVSCKASGYTFTTYTIHWVRQAPGQGLEWMGYINPSSDYTRYNPKFKDRVTMTTDTSTSTAYMELRSLRSDDTAVYYCARGTRDYWGQGTTVTVSS
VL: DIQLTQSPSFLSASVGDRVTITCSAASSVSYIYWYQQKPGKAPKLLIYSTSTLPSGVPSRFSGSGSGTEYTLTISSLQPEDFATYYCHQRNSFPFTFGQGTKLEIK
notes: IgG format; VH.1 + Vk.1a
B4: the fluorescence intensity was found to be 1060 in assay [1]; 680 in assay [2]; 3 in [3]; 1050 in assay [4]; 756 in [5]; 2 in assay [7]. Also, the fluorescence intensity in assay [8] is 3; in assay [9], 1060. Further, in [6], the binding result is reported as “no binding”.

B5: Hu6C12-10 (antibody, V domains shown)
VH: EVQLVQSGAEVKKPGASVKVSCKASGYTFTTYTIHWVRQAPGQGLEWMGYINPSSDYTRYNPKFKDRVTMTTDTSTSTAYMELRSLRSDDTAVYYCQRGTRDYWGQGTTVTVSS
VL: DIQLTQSPSFLSASVGDRVTITCSAASSVSYIYWYQQKPGKAPKLLIYSTSTLPSGVPSRFSGSGSGTEYTLTISSLQPEDFATYYCHQRNSFPFTFGQGTKLEIK
notes: IgG format; VH.1a + Vk.1a
Turning to B5, the fluorescence intensity is 1310 in assay [1]; 872 in assay [2]; 3 in [3]; 1310 in assay [4]; 973 in [5]; 2 in [7]. Further, the fluorescence intensity was found to be 3 in [8] and 1410 in assay [9]. For the same molecule, the binding result in assay [6] is reported as “no binding”.

B6: Hu6C12-4 (antibody, V domains shown)
VH: EVQLVQSGAEVKKPGASVKVSCKASGYTFTTYTIHWVRQAPGQGLEWMGYINPSSDYTRYNPKFKDRVTLTTDTSTSTAYMELRSLRSDDTAVYYCQRGTRDYWGQGTTVTVSS
VL: DIQLTQSPSFLSASVGDRVTITCSAASSVSYIYWYQQKPGKAPKLLIYSTSTLPSGVPSRFSGSGSGTEFTLTISSLQPEDFATYYCHQRNSFPFTFGQGTKLEIK
notes: IgG format; VH.1d + Vk.1
In the case of B6, the fluorescence intensity in assay [1] came out at 1320; in [2], 884; in assay [3], 3; in assay [4], 1340; in [5], 989; in assay [7], 2. Besides, the results for the fluorescence intensity in [8] and in [9] were 3 and 1070, respectively. Further, in assay [6], the binding result is given as “no binding”.

B7: 10F1 scFv-Fc (Fc fusion)
scFv: QVQLLQSGAELARPGASVRISCKASGYTFTRYAMHWVKQRPGQGLEWIGYINPGTFSTNYNQKFKDRATLTADKSSSTAYMQLNSLTSEDSAVYYCQTGTRDYWGQGTTLTVSSGGGGSGGGGSGGGGSQIVLTQSPPIMSASPGEKVTITCSAASSVSYIYWFQQKPGTSPKLWIYSTSSLPSGVPTRFSGSGSGTSYSLTISRMEAEDAATYYCHQRSSYPFTFGSGTKLEIRGGGGAGGGGCKPCICTVPEVSSVFIFPPKPKDVLTITLTPKVTCVVVDISKDDPEVQFSWFVDDVEVHTAQTQPREEQFNSTFRSVSELPIMHQDWLNGKEFKCRVNSAAFPAPIEKTISKTKGRPKAPQVYTIPPPKEQMAKDKVSLTCMITDFFPEDITVEWQWNGQPAENYKNTQPIMDTDGSYFVYSKLNVQKSNWEAGNTFTCSVLHEGLHNHHTEKSLSHSPGK
notes: as m18
Regarding B7, the FACS signal was 2070 Flourescent units in assay [10]; 2 Flourescent units in assay [11]; 1 Flourescent units with dog red blood cells; 2980 Flourescent units in [12]; 842 Flourescent units in assay [13]; 647 Flourescent units in assay [14].

B8: 8F9 scFv-Fc (Fc fusion)
scFv: QVQLQQSGAELARPGASVKMSCKASGYTFTSYSIHWIKQRPGQSLEWIGYINPNSDYANYNQKFKDKATLTTDKSSTTAYMQLSSLTTDDSAVYYCQTGTRDYWGQGTTLTVSSGGGGSGGGGSGGGGSHIVLTQSPAIMSASPGEKVTIICSARSSVSYMYWFQQKPGTSPKLWIYATSSLPSGVPARFSGSGSGTSYSLTISRMEAEDAATYYCHQRSSYPYTFGSGTKLEIKGGGGAGGGGCKPCICTVPEVSSVFIFPPKPKDVLTITLTPKVTCVVVDISKDDPEVQFSWFVDDVEVHTAQTQPREEQFNSTFRSVSELPIMHQDWLNGKEFKCRVNSAAFPAPIEKTISKTKGRPKAPQVYTIPPPKEQMAKDKVSLTCMITDFFPEDITVEWQWNGQPAENYKNTQPIMDTDGSYFVYSKLNVQKSNWEAGNTFTCSVLHEGLHNHHTEKSLSHSPGK
notes: as m18
Take B8: the FACS signal in [10] was 1770 Flourescent units; in assay [11], 2 Flourescent units; with dog red blood cells it was 1 Flourescent units; in assay [12] it was 2340 Flourescent units; in assay [13], 761 Flourescent units; in [14] it was 582 Flourescent units.

B9: 7G4 scFv-Fc (Fc fusion)
scFv: QVQLKESGPGLVAPSQSLSITCTVSGFSLTRFGISWVRQPPGKGLEWMGVIWGDGSTDYHSALISRLSITKDNSKSQVFFRLNSLQSDDSATYYCARSFGMDYWGQGTSVTVSSGGGGSGGGGSGGGGSNIMMTQSPSSLAVSAGEKVTMSCKSSQSILNSSNQKNYLAWYQQKPGQSPKLLIYWASTRESGVPDRFTGSGSGTDFTLTISSVQAEDLAVYYCHQYFSSRTFGGGTKLEIKGGGGAGGGGCKPCICTVPEVSSVFIFPPKPKDVLTITLTPKVTCVVVDISKDDPEVQFSWFVDDVEVHTAQTQPREEQFNSTFRSVSELPIMHQDWLNGKEFKCRVNSAAFPAPIEKTISKTKGRPKAPQVYTIPPPKEQMAKDKVSLTCMITDFFPEDITVEWQWNGQPAENYKNTQPIMDTDGSYFVYSKLNVQKSNWEAGNTFTCSVLHEGLHNHHTEKSLSHSPGK
notes: as m18
Consider B9, for which the FACS signal turned out to be 1 Flourescent units in [10]; 1 Flourescent units in assay [11]; 1 Flourescent units with dog red blood cells; 1410 Flourescent units in assay [12]; 1 Flourescent units in assay [13]; 1 Flourescent units in assay [14].
